The values below come from patent US4829052A, “Serine protease inhibitors” (Monsanto Company, priority 1987, dated 1989).

What all share (format): biochemical
Test [1] addresses T1, Human Sputum Elastase (Homo sapiens, UniProt P08246).
T1 construct: Human Sputum Elastase, product No. SE-563 EPC, Inc., Pacific, Mo; USA, Lot 85701; purchased EPC, Inc., Pacific, Mo; USA SE-563; host or cells: human sputum
T1 sequence (P08246 30-267): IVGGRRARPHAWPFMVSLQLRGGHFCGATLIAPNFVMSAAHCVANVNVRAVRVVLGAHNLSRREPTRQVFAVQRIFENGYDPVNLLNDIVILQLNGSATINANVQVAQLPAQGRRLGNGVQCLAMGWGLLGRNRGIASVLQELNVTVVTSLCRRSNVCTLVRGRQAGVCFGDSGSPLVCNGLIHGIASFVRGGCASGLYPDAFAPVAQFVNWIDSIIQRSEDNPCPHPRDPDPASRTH
The test is described as follows: Elastase assay (spectrophotometric, p-nitroanilide substrate). The procedure:
(§1) The inhibitory activity of the polypeptides of the present invention can be easily assayed using in vitro assays. In these types of spectrophotometric assays the activity of the serine protease is measured toward an appropriate p-nitroanilide substrate in the presence and absence of the peptide inhibitor. The enzyme catalyzed hydrolysis of the peptide p-nitroanilide substrate produces p-nitroanaline which results in an increase in absorbance which is monitored in the range of 405 to 410 nm. The rate of increase in absorbance is a measure of the enzymatic activity and the decrease in this rate relative to a suitable control is used to ascertain inhibition. The general assay procedure and details of the particular assays employed in the examples are provided in the Appendix following the examples. It is also possible to test the polypeptides in a functionally oriented assay that emulates in vivo conditions. Such an inhibition assay for elastase is also described in the Appendix.
(§2) Generalized Protocol Spectrophotometric Assays:
(§3) (1) Pipette 100 μl of enzyme solution into a disposable polystyrene cuvette (1 cm optical path length).
(§4) (2) Add (1900-X) μl of bufferto the cuvette, where X is the volume of test solution in microliters that is added in the next step.
(§5) Add X μl of test solution to the cuvette, where X ranges from 0 μl for the control to a maximum of about 500 μl. Incubate the solution for a period of 1 to 5 minutes at ambient temperature.
(§6) (4) Add 100 μl of substrate solution to the cuvette. Mix the contents by covering the cuvette with a piece of paraffin film and repeatedly inverting for a period of 5 to 15 seconds.
(§7) (5) Record the change in absorbance for about 5 minutes at either 405 or 410 nm, depending on the assay, with a spectrophotometer equipped with a suitable recording device.
(§8) The percent inhibition is calculated from the formula [formula] where (ΔA/min) is the initial rate of absorbance change.
(§9) (7) For more accurate quantitative determinations temperature control of the cuvette holders and the reagent solutions can be instituted.
(§10) (8) The test solution can be crude oxidized peptide prepared as described above, fractions from a chromatographic separation or purified polypeptides.
(A) Buffer Solution - Tris-NaCl buffer consisting of 0.1M Tris-HCl pH 7.5 at 25° C. containing 0.5M NaCl and 0.01% (w/v) NaNs.
(B) Substrate Solution - Dissolve 45.5 mg of N-succinyl-L-alanyl-L-alanyl-L-alanine p-nitroanilide in 1 ml of 1-methyl-2-pyrrolidinone. Add 32 ml of Tris-NaCl buffer.
(C) Enzyme Solution - Human Sputum Elastase, product No. SE-563 EPC, Inc., Pacific, Mo. USA, Lot 85701. Dissolve 1 mg in 1 ml of Tris-NaCl buffer. Store on ice or at 4° C.
(D) Test Solution - See general protocol, number 8.
Procedure: Use the above solutions in the general protocol described above.
(1) Buffer Solution - Tris-NaCl buffer -see Method 1.
(2) Substrate Solution - Dissolve 50 mg of 3-carbomethoxypropionyl-L-alanyl-L-alanyl-L-[…]-L-valine p-nitroanilidein 1 ml of 1-methyl-2-pyrrolidinone. Add 32 ml of Tris-NaCl buffer.
(3) Enzyme Solution - Human sputum elastase, product No. SE-563, EPC, inc. Pacific, Mo. USA, Lot 85071. Prepare a sample at a concentration of 0.01 mg per ml of Tris-NaCl buffer. Store on ice.
(4) Test Solution - general protocol, number 8.
Procedure: Use the above solutions in the general protocol.
(1) Porcine pancreatic elastase may be substituted for human elastase when it is desired to test for an inhibitor of the former.
(2) The activity of an elastase preparation can be calculated as [formula]
(3) The Tris-NaCl buffer also can be pH 8.0 with 0.03% sodium azide. Results should be compared at a single pH.

The target in test [2] is T2, Human Sputum Cathepsin G (Homo sapiens, UniProt P08311).
T2 construct: Human Sputum Cathepsin G (Product No. SG-45, EPC, Inc., Pacific, Mo.); purchased EPC, Inc., Pacific, Mo; SG-45; host or cells: human sputum
T2 sequence (P08311 21-255): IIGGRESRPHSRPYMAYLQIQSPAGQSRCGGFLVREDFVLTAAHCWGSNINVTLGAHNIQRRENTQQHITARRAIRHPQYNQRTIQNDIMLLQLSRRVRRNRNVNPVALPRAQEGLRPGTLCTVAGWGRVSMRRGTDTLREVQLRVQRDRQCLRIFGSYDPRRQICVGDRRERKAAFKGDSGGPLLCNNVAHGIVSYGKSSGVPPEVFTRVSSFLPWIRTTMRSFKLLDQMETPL
Description: Cathepsin G assay (spectrophotometric, p-nitroanilide substrate). The settings on record: inhibitor/protease ratio between about 10/1 and 50/1. Here is the method:
as §1, §2, §3, §4, §5, §6, §7, §8, §9, §10
(A) Buffer Solution - Tris-NaCl buffer consisting of 0.1M Tris-HCl, pH 8.0 containing 0.5M NaCl and 0.03% sodium azide.
(B) Substrate solution - Dissolve 50 mg of N-succinyl-L-alanyl-L-alanyl-L-prolyl-L-phenylalanine p-nitroanilide in 1 ml of 1-methyl-2-pyrrolidinone and dilute to 50 ml with Tris-NaCl buffer.
(C) Enzyme Solution - Human Sputum Cathepsin G (Product No. SG-45, EPC, Inc., Pacific, Mo.). Dissolve 1 mg of protein per 1 ml of Tris-NaCl buffer. Store on ice or at 4° C.
(D) Test Solutions - See the general protocol, number 8.
Procedure: Use the above solution in the general protocol described above. […]

The target of test [3] is T3, purified human elastase (HE) (Homo sapiens, UniProt P08246).
T3 sequence (P08246 30-267): T1 sequence (P08246 30-267)
The test is described as follows: 125I-Fibronectin assay with purified human elastase. The settings on record: enzyme concentration 4 nM, FIG. 3.
Procedure: This assay is designed to model the degradation of connective tissue. […] Briefly, purified human plasma fibronectin (fn) is radiolabeled with ^125 I using Enzymobeads and conventional procedures. The desalted is diluted with fn to yield ca. cpm/ug. This material is further diluted with pH 9.6 barbital buffer and 200 ul (30 ug fn, 50000 cpm) is pipetted into the wells of a flat bottomed 96 well microtiter plate. The plates are dried for about 24 hours at 37° C. and unbound fn is removed with 2 washes of phosphate buffered saline (PBS). The plates are stored at 4° C. and are stable for at least 2 weeks.
For an assay each coated well is filled with a total volume of 200 μl. All measurements are carried out at optimal pH and buffer conditions. After addition of proteolytic activity with or without inhibitor the plate is incubated at 37° C. for 3 hours. The well contents are centrifuged and a 100 μl aliquot is counted for 1251gamma radiation. Some assays employed elastase activity derived from freshly prepared neutrophils (PMN). ln this case an activating agent to stimulate the PMN is present in the well and the PMN is added last. A standard curve showing the linearity of the response to the amount of purified human elastase (HE) added is obtained concurrently with each assay.

In the case of “RVCPVILMKCKKDSDCLAECVCLEHGYCG (RVCPVILMKCKKDSDCLAECVCLEHGYCG) [Peptide 8]”, in test [1] (FIG. 2), the “titration curve for elastase inhibition” value was “essentially stochiometric inhibition”. The “Inhibitory Activity Elastase” value in test [1] (inhibitor/protease ratio between about 10/1 and 50/1) is “++ (Represents greater than 50% inhibition)”. Also, the “Inhibitory Activity Cathepsin G” value in test [2] is reported as “- (Represents less than 10% inhibition)”. Moreover, the “inhibition of 125I fibronectin degradation” value in test [3] is “nearly the same inhibitory profile against purified human elastase (HE) and PMN-derived HE activity”.
